The values below come from the RNAGym collection of RNA variant scans (doi:10.1093/molbev/msab373).

The chains are these.
B1: Azoarcus group I ribozyme (parent)
chain: GUGCCUUGCGCCGGGAAACCACGCAAGGGAUGGUGUCAAAUUCGGCGAAACCUAAGCGCCCGCCCGGGCGUAUGGCAACGCCGAGCCAAGCUUCGGCGCCUGCGCCGAUGAAGGUGUAGAGACUAGACGGCACCCACCUAAGGCAAACGCUAUGGUGAAGGCAUAGUCCAGGGAGUGGCGAAAGUCACACAAACCGG

In this data set the parent is B1. As to the kind of experiment: reverse-splicing fitness (ratio to wild type); higher = more active; in vitro selection; Mg2+ level not given. The procedure, abridged: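 An in vitro group I ribozyme library with randomized positions was T7-transcribed and gel-purified. In triplicate, 10 pmol RNA in EPPS pH 7.5 was reacted with 50 pmoles of a 30-nt RNA substrate for 1 h at 37 °C across several added MgCl2 levels (1–48 mM), then stopped with EDTA. Products were reverse transcribed from a substrate-complementary primer, PCR-amplified and sequenced (HiSeq 4000). Fitness is a variant's read proportion after selection over that before, normalised to wild type.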
Turning to A111G A120C A145U C150A C169U U176G, the reverse-splicing fitness stood at 0.00505.

On to A111C A120U A145G C169U U176A, for which the reverse-splicing fitness came to 0.0138.

Take C82U A111C A120U A145G C169U U176C: the reverse-splicing fitness amounted to 0.00342.

As for C82A A111C A120G A145C C150U C169A U176G, the reverse-splicing fitness is 0.00632.

On to C82G A111U A120C A145G C150A C169A, for which the reverse-splicing fitness was found to be 0.0113.

As for C82G A120G A145G C169U U176A, the reverse-splicing fitness was 0.0208.

Regarding C82G A120G A145G C169U U176G, the reverse-splicing fitness was 0.00391.

Regarding C82A A111U A120C A145G C150A, the reverse-splicing fitness was 0.013.

On to A120G A145C C150A C169G U176A, for which the reverse-splicing fitness worked out at 0.0447.

As to A111G A145G C150U C169U U176G, the reverse-splicing fitness was 0.00616.

As for A120U A145G C150A U176C, the reverse-splicing fitness turned out to be 0.218.

For C82A A145G C169U U176C, the reverse-splicing fitness was determined as 0.0143.

Regarding C82G A145U C150A C169A U176A, the reverse-splicing fitness amounted to 0.0121.

Regarding A120U A145U C150G C169A U176A, the reverse-splicing fitness was 0.00344.

Take A111U A145C C150U C169U U176G: the reverse-splicing fitness is 0.00571.

Regarding C82G A111C A120G A145U C150A C169G U176C, the reverse-splicing fitness stood at 0.0153.

C82U A120U A145C C169U U176C: the reverse-splicing fitness came to 0.00289.

Consider C82U A111U A120G A145G C150A C169A U176C, for which the reverse-splicing fitness turned out to be 0.02.

With C82A A111G A145G C150A C169U, the reverse-splicing fitness was determined as 0.0109.

Consider C82U A111C A120U A145U C169U U176C, for which the reverse-splicing fitness turned out to be 0.00255.

In the case of C82G A145G C169U U176G, the reverse-splicing fitness is 0.00412.

Regarding C82A A111U A120U A145G C150U C169U, the reverse-splicing fitness came to 0.00663.

On to C82G A111G A120C A145C C150A C169G U176G, for which the reverse-splicing fitness came out at 0.00633.

As for C82G A111C A120C A145G C150U C169U U176G, the reverse-splicing fitness came to 0.00732.

Regarding C82A A111C A120C A145U C169U U176G, the reverse-splicing fitness is 0.00589.

With A111U A120G A145C C150A C169G U176C, the reverse-splicing fitness amounted to 0.015.

For C82U A120U A145C C150U C169U, the reverse-splicing fitness stood at 0.00331.

Turning to A145G C169A U176C, the reverse-splicing fitness came out at 0.0662.

As for C82A A111U A120G A145G C150U C169A U176A, the reverse-splicing fitness was found to be 0.0144.

On to C82U A120U A145G C169U, for which the reverse-splicing fitness turned out to be 0.00624.

For the variant A111U A145U, the reverse-splicing fitness was determined as 0.924.

Turning to C82A A111G A120C C150G C169G, the reverse-splicing fitness amounted to 0.00727.

C82U A120U A145G C150G C169U: the reverse-splicing fitness turned out to be 0.00613.

Take C82G A111G A120C A145U C150U C169G U176C: the reverse-splicing fitness was determined as 0.0179.

Turning to C82G C150U C169A U176G, the reverse-splicing fitness came to 0.00526.

As to A111U A145G C169A U176A, the reverse-splicing fitness came out at 0.0211.

With C82U A111U A120G A145G C150A C169U U176A, the reverse-splicing fitness came to 0.0205.

For A111U A120C A145C C150A C169U, the reverse-splicing fitness came out at 0.013.

As for C82G A111G A145U C169U, the reverse-splicing fitness is 0.0127.

C82U A111U A120G A145G C150U C169U: the reverse-splicing fitness stood at 0.0104.

Consider C82A A111G A120U C150A C169G U176A, for which the reverse-splicing fitness stood at 0.00908.

As to C82G A120G A145G C150U C169A U176G, the reverse-splicing fitness worked out at 0.00521.

For the variant C82G A111U A120C C169G U176C, the reverse-splicing fitness worked out at 0.0244.

As for C82G A120G C169U U176A, the reverse-splicing fitness came out at 0.0236.

As to C82G A111G A145C C150A U176A, the reverse-splicing fitness came out at 0.0205.

For the variant C82G A111C A120U A145G C150G C169A U176G, the reverse-splicing fitness was 0.00544.

Consider C82A A111C A145G C150U C169A, for which the reverse-splicing fitness came out at 0.0103.

With A111C A120U A145C C169U U176C, the reverse-splicing fitness is 0.0145.

As to C82G A111U A120G A145G C150G C169G U176C, the reverse-splicing fitness came to 0.0116.

In the case of A120C C150A C169U U176G, the reverse-splicing fitness came out at 0.00663.

Regarding C82U A111G A120G C150G U176A, the reverse-splicing fitness was 0.00527.

On to A111G A120U A145G C150A C169A, for which the reverse-splicing fitness turned out to be 0.00596.

In the case of C82U A111C A120G C150A C169U U176G, the reverse-splicing fitness came to 0.00544.

C82G A111U C169A U176C: the reverse-splicing fitness was found to be 0.0203.

C82U A111U A145G C150U U176A: the reverse-splicing fitness came out at 0.0765.

As to C82G A111C A120U A145U C150G C169G U176A, the reverse-splicing fitness is 0.00287.

For C82U A120C A145U C150G C169A U176C, the reverse-splicing fitness was found to be 0.00716.

With C82G A120C A145G C169A U176C, the reverse-splicing fitness was determined as 0.0247.

C82G A111C A145G C150U C169A U176C: the reverse-splicing fitness was 0.0146.

In the case of C82G A111G A120C A145G C150G C169A U176A, the reverse-splicing fitness is 0.0153.

With A120G C150A C169G, the reverse-splicing fitness was determined as 0.0903.

As to C82G A111G A120U A145C C169U U176A, the reverse-splicing fitness was 0.00244.

Turning to C82A A111G A120U A145C C150A C169A U176G, the reverse-splicing fitness worked out at 0.00214.

In the case of C82G A111U A120U C150U C169G U176C, the reverse-splicing fitness came to 0.00433.

As to C82U A111C A145U C150G C169G U176A, the reverse-splicing fitness amounted to 0.00648.

Consider C82G A111C A145G C169A U176A, for which the reverse-splicing fitness came to 0.0222.

Take C82A A111C A120C A145U C150G C169U U176G: the reverse-splicing fitness was determined as 0.00684.

As for A111G A120U A145C C150A C169U U176C, the reverse-splicing fitness was found to be 0.00268.

Consider C82U A111C A120C A145G C169U U176A, for which the reverse-splicing fitness worked out at 0.0159.

Take C82A A111G A120U A145C C150U: the reverse-splicing fitness is 0.0111.

C82U A120U A145C C150U U176C: the reverse-splicing fitness worked out at 0.0162.

Regarding C82U A111G A120U A145C C150G C169G U176A, the reverse-splicing fitness worked out at 0.00255.

A111G A120C A145G C169G U176G: the reverse-splicing fitness turned out to be 0.00387.

Consider A145C C150G C169A U176A, for which the reverse-splicing fitness was found to be 0.00984.

With A111G A145C C150A C169G U176G, the reverse-splicing fitness turned out to be 0.00534.

Take A120C A145G C169G U176A: the reverse-splicing fitness was 0.0155.

For A111U A120C A145C C150U C169U U176G, the reverse-splicing fitness was 0.0056.

As for C82A A120G A145C C150G C169G, the reverse-splicing fitness came out at 0.00899.

C82G A111G A120U A145U C169G U176G: the reverse-splicing fitness stood at 0.00156.

C82A A111G A120U A145G C150U C169U U176G: the reverse-splicing fitness is 0.00242.

As for C82G A111U A120G A145G C169G U176A, the reverse-splicing fitness came to 0.0166.

In the case of C82G A111G A120C A145G C150G C169U U176A, the reverse-splicing fitness is 0.0118.

For C82A A120G A145C C150U U176G, the reverse-splicing fitness is 0.0042.
